Reference: paper PMC7948976, “KIF3A accelerates KIF3C within the kinesin-2 heterodimer to generate symmetrical phosphate release rates for each processive step” (The Journal of Biological Chemistry, 2020)

How the values were obtained:
Test in all cases: stopped-flow presteady-state phosphate release, MDCC-PBP fluorescence; hyperbolic fit of initial exponential rates
Type in all cases: biochemical, Mus musculus
[1] = substrate: Nc1ncnc2c1ncn2[C@@H]1O[C@H](COP(=O)(O)OP(=O)(O)OP(=O)(O)O)[C@@H](O)[C@H]1O; details: preformed microtubule-KIF3 complex (2 μM MT, 0.5 μM dimer in syringe), 250 mM KCl in ATP syringe, 5 mM magnesium acetate, pH 7.2, 25 °C, not steady-state Km
From the text: stopped-flow presteady-state phosphate release, MDCC-PBP fluorescence; hyperbolic fit of initial exponential rates on KIF3AC

[2] = substrate: Nc1ncnc2c1ncn2[C@@H]1O[C@H](COP(=O)(O)OP(=O)(O)OP(=O)(O)O)[C@@H](O)[C@H]1O; details: preformed microtubule-KIF3 complex (2 μM MT, 0.5 μM dimer in syringe), 300 mM KCl in ATP syringe, 5 mM magnesium acetate, pH 7.2, 25 °C, not steady-state Km
From the text: stopped-flow presteady-state phosphate release, MDCC-PBP fluorescence; hyperbolic fit of initial exponential rates on KIF3AA

[3] = substrate: Nc1ncnc2c1ncn2[C@@H]1O[C@H](COP(=O)(O)OP(=O)(O)OP(=O)(O)O)[C@@H](O)[C@H]1O; details: preformed microtubule-KIF3 complex (2 μM MT, 0.5 μM dimer in syringe), 300 mM KCl in ATP syringe, 5 mM magnesium acetate, pH 7.2, 25 °C, not steady-state Km; remark: listed apart in the source
From the text: stopped-flow presteady-state phosphate release, MDCC-PBP fluorescence; hyperbolic fit of initial exponential rates on KIF3CC

B1: KIF3AC (Mus musculus) (protein)
chain 1: MPINKSEKPESCDNVKVVVRCRPLNEREKSMCYRQAVSVDEMRGTITVHKTDSSNEPPKTFTFDTVFGPESKQLDVYNLTARPIIDSVLEGYNGTIFAYGQTGTGKTFTMEGVRAVPGLRGVIPNSFAHIFGHIAKAEGDTRFLVRVSYLEIYNEEVRDLLGKDQTQRLEVKERPDVGVYIKDLSAYVVNNADDMDRIMTLGHKNRSVGATNMNEHSSRSHAIFTITIECSEKGVDGNMHVRMGKLHLVDLAGSERQAKTGATGQRLKEATKINLSLSTLGNVISALVDGKSTHVPYRNSKLTRLLQDSLGGNSKTMMCANIGPADYNYDETISTLRYANRAKNIKNKARINEDPKDALLRQFQKEIEELKKKL
chain 2: MASKTKASEALKVVARCRPLSRKEEAAGHEQILTMDVKLGQVTLRNPRAAPGELPKTFTFDAVYDASSKQADLYDETVRPLIDSVLQGFNGTVFAYGQTGTGKTYTMQGTWVEPELRGVIPNAFEHIFTHISRSQNQQYLVRASYLEIYQEEIRDLLSKEPGKRLELKENPETGVYIKDLSSFVTKNVKEIEHVMNLGNQARAVGSTHMNEVSSRSHAIFVITVECSERGSDGQDHIRVGKLNLVDLAGSERQNKAGPNAAGGPATQPTAGGGSGSGSASGSASSGERPKEASKINLSLSALGNVIAALAGNRSTHIPYRDSKLTRLLQDSLGGNAKTIMVATLGPASHSYDESLSTLRFANRAKNIKNKPRVNEDPKDTLLREFQEEIARLKAQL
notes: heterodimer; motor domain, neck linker and helix α7 (KIF3A Met1-Leu374, KIF3C Met1-Leu396), each fused to EB1 dimerization domain; KIF3A StrepII tag, KIF3C His8 tag, tags not cleaved; E. coli; dimer MW 98,318
K0.5 [1]: 28.2 ± 1.8 µM

B2: KIF3AA (Mus musculus) (protein)
chain: B1 chain 1
notes: engineered homodimer; motor domain Met1-Leu374 fused to EB1 dimerization domain; His8 tag not cleaved; E. coli; dimer MW 97,004
K0.5 [2]: 30.9 ± 4.7 µM

B3: KIF3CC (Mus musculus) (protein)
chain: B1 chain 2
notes: engineered homodimer; motor domain, neck linker and helix α7 (Met1-Leu396) fused to EB1 dimerization domain; His8 tag not cleaved; E. coli; dimer MW 99,518 (borders printed for the KIF3C chain of KIF3AC; mass agrees)
K0.5 [3]: 13.9 ± 3.5 µM
